{"source": "paper PMC12990809", "experiment_in_all_cases": "pulldown", "conditions_in_all_cases": "20 nM protein, 1.5 uM RNA pool; 20 mM HEPES pH 7.8, 70 mM KCl, 10 mM NaCl, 10% glycerol, 2 mM DTT, 0.1 ug/uL BSA; 30 min, 4 C", "key": {"[1]": {"target": "T1, rbm-28 (Caenorhabditis elegans) (UniProt O62325)", "T1 sequence": "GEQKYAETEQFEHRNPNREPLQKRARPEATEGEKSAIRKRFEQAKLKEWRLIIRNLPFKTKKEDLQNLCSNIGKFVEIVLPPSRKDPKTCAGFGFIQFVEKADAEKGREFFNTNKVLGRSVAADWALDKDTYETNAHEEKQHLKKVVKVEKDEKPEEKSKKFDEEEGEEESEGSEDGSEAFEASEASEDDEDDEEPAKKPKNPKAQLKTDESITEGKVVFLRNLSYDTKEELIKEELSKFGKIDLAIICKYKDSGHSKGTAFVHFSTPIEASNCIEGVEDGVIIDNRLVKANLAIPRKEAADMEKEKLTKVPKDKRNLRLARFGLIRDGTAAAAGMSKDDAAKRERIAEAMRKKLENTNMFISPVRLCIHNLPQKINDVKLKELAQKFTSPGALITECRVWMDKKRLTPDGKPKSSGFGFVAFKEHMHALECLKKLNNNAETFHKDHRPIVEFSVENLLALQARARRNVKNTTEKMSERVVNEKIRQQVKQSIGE"}, "[2]": {"target": "PGTG_00837 (Puccinia graminis) (UniProt E3JTY5)"}, "[3]": {"target": "T2, PK00513.1 (Cannabis sativa) (UniProt A0A7J6DZZ3)", "T2 sequence": "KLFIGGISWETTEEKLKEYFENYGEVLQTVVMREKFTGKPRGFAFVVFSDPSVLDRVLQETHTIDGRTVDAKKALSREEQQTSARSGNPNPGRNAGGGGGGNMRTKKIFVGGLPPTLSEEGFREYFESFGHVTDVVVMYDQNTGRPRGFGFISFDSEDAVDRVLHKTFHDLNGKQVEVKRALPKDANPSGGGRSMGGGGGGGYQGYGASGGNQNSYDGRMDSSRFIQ"}, "[4]": {"target": "T3, K07H8.9 (Caenorhabditis elegans) (UniProt O45180)", "T3 sequence": "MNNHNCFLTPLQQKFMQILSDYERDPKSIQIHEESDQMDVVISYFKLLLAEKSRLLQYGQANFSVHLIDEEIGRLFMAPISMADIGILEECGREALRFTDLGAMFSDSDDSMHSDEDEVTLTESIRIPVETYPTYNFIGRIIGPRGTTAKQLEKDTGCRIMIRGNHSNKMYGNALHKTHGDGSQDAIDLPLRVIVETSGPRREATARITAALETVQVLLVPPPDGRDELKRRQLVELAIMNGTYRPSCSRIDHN"}, "[5]": {"target": "T4, UBA2B (Arabidopsis thaliana) (UniProt O80678)", "T4 sequence": "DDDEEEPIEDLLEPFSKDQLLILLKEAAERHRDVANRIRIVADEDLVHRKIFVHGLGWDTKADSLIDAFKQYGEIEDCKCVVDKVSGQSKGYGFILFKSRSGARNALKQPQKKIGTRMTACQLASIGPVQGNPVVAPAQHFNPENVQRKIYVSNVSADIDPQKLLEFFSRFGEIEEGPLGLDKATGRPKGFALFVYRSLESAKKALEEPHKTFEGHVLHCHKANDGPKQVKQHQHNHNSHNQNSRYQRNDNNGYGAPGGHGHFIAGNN"}, "[6]": {"target": "T5, PK05405.1 I85V;D92G;E327K;K328E (Cannabis sativa) (UniProt A0A7J6HVI1)", "T5 sequence": "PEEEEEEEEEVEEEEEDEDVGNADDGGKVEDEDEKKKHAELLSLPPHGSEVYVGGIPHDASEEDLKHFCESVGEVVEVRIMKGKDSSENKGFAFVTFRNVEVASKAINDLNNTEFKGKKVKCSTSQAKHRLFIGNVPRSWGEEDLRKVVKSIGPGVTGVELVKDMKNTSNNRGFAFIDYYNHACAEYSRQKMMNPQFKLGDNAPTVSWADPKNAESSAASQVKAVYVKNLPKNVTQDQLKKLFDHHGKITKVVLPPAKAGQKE"}, "[7]": {"target": "T6, PK00840.1 S382G (Cannabis sativa) (UniProt A0A803NL23)", "T6 sequence": "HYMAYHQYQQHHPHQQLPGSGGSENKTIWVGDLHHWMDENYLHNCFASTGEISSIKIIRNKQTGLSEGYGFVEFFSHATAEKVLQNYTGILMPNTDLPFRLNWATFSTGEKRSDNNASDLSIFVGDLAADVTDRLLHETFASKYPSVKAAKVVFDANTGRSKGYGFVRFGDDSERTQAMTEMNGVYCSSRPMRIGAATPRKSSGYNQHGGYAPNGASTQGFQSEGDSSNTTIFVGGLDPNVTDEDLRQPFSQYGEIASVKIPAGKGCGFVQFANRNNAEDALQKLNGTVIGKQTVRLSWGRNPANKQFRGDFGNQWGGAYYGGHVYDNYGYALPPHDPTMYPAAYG"}, "[8]": {"target": "T7, PK20770.1 (Cannabis sativa) (UniProt A0A7J6HVT3)", "T7 sequence": "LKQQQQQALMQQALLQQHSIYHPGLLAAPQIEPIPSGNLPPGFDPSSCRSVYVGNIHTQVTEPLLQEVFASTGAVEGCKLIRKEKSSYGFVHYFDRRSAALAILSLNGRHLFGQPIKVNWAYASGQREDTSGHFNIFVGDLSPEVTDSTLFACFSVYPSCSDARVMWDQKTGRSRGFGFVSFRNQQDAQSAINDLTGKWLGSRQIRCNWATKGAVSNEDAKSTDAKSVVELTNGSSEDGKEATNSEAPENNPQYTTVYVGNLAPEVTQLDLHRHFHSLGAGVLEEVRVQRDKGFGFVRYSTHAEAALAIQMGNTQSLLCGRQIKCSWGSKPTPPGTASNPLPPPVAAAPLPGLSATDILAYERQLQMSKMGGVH"}}, "data": [{"substance": "AGACUCU [RNAcompete motif RNCMPT00470]", "values": [{"measurement": "binding signal (z-score (mean of top ten 7-mers))", "setting": "[1]", "value": 9.34}]}, {"substance": "GGUGGA [RNAcompete motif RNCMPT00476]", "values": [{"measurement": "binding signal (z-score (mean of top ten 7-mers))", "setting": "[2]", "value": 6.99}]}, {"substance": "GUAGGAA [RNAcompete motif RNCMPT00462]", "values": [{"measurement": "binding signal (z-score (mean of top ten 7-mers))", "setting": "[3]", "value": 10.4}]}, {"substance": "UACUNAC [RNAcompete motif RNCMPT00469]", "values": [{"measurement": "binding signal (z-score (mean of top ten 7-mers))", "setting": "[4]", "value": 7.13}]}, {"substance": "UUUUU [RNAcompete motif RNCMPT00475]", "values": [{"measurement": "binding signal (z-score (mean of top ten 7-mers))", "setting": "[5]", "value": 10.7}]}, {"substance": "UUUUUCG [RNAcompete motif RNCMPT00466]", "values": [{"measurement": "binding signal (z-score (mean of top ten 7-mers))", "setting": "[6]", "value": 7.47}]}, {"substance": "UUUUUU [RNAcompete motif RNCMPT00461]", "values": [{"measurement": "binding signal (z-score (mean of top ten 7-mers))", "setting": "[7]", "value": 7.67}]}, {"substance": "UUUUUU [RNAcompete motif RNCMPT00464]", "values": [{"measurement": "binding signal (z-score (mean of top ten 7-mers))", "setting": "[8]", "value": 14.6}]}]}
